Experimental data from patent US20050106141A1, “Hairless protein-interacting partner complexes and methods thereof for the beautification and/or improvement of mammalian skin” (The Procter & Gamble Company, priority 2003, published 2005).

Target: LexA BD-HRt (mouse)
Assay: yeast two-hybrid library screen; number of positive clones with this identity

LexA BD-HRt (mouse), sequence (P0A7C2 other isoform, or with tags, fused parts or gaps limits assumed): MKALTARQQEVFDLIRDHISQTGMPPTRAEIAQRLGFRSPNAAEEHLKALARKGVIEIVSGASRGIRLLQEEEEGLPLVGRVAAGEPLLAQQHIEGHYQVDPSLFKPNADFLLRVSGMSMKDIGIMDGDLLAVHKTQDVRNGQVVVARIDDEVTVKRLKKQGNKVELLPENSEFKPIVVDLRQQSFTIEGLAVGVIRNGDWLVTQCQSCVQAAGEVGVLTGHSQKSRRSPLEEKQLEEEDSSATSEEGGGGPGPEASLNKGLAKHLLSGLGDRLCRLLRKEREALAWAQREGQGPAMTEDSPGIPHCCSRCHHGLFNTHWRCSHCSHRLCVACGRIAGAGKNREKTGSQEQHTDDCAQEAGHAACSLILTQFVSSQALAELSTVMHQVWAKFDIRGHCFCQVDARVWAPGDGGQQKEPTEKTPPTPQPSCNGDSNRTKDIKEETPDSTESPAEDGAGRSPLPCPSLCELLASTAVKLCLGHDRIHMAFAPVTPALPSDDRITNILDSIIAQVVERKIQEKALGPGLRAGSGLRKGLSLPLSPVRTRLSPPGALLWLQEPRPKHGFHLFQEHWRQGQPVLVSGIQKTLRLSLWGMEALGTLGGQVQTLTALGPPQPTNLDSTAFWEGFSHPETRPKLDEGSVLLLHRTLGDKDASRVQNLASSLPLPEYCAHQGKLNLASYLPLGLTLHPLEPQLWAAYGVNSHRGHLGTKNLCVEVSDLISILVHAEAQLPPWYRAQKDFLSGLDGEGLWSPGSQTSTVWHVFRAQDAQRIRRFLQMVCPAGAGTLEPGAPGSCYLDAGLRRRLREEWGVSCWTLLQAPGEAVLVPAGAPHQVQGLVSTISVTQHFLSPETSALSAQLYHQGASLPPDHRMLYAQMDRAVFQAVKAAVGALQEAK

“Homo Sapiens HIC Protein Isoform P32 and Isoform 40 (from UniProt Q9P1T7 1-246)” showed a Hits of 1.
